# Source: the Immune Epitope Database (IEDB)
# Legend:
# Assay in all cases: IEDB peptide-MHC binding, purified MHC/competitive/radioactivity; filed as Kd, often an IC50 or EC50 that approximates it; ≥ and ≤ were set here for values at or beyond the usual limits of such assays
# HLA-A*03:01 = biological target: HLA-A*03:01
# HLA-A*11:01 = biological target: HLA-A*11:01
# HLA-A*31:01 = biological target: HLA-A*31:01
# HLA-A*68:01 = biological target: HLA-A*68:01
# HLA-A*33:01 = biological target: HLA-A*33:01
# HLA-A*02:03 = biological target: HLA-A*02:03
# [1] = source organism: SARS coronavirus Tor2
# [2] = source organism: Dengue virus 4 Philippines/H241/1956
# [3] = source organism: Vaccinia virus WR
# [4] = source organism: Mammarenavirus guanaritoense
# [5] = source organism: Lassa virus Josiah
# [6] = source organism: Mammarenavirus brazilense
# [7] = source organism: Mammarenavirus machupoense
# [8] = source organism: Vaccinia virus Copenhagen
Sequence,Kd (HLA-A*03:01; [3]),Kd (HLA-A*11:01; [3]),Kd (HLA-A*31:01; [3]),Kd (HLA-A*68:01; [3]),Kd (HLA-A*33:01; [3]),other results
SLYMAISPK,–,–,–,–,–,Kd (HLA-A*03:01; [1]): 13.6 nM; Kd (HLA-A*11:01; [1]): 21.9 nM; Kd (HLA-A*31:01; [1]): 1010 nM; Kd (HLA-A*68:01; [1]): 2190 nM; Kd (HLA-A*33:01; [1]): ≥ 49500 nM
RLASMAICSA,–,–,–,–,–,Kd (HLA-A*02:03; [2]): 24.5 nM
VTTKDYFSFK,26.1 nM,11 nM,561 nM,155 nM,7280 nM,–
NYTRFWYINH,–,–,–,–,–,Kd (HLA-A*03:01; [4]): 9020 nM; Kd (HLA-A*11:01; [4]): 12300 nM; Kd (HLA-A*31:01; [4]): 1340 nM; Kd (HLA-A*68:01; [4]): 4140 nM; Kd (HLA-A*33:01; [4]): 48.8 nM
DTIVSRSSR,≥ 78000 nM,≥ 77900 nM,1410 nM,5.79 nM,5.71 nM,–
YALINLVQYR,11700 nM,6860 nM,570 nM,21.8 nM,1270 nM,–
GLCAHILLY,14 nM,37.5 nM,18000 nM,3200 nM,8360 nM,–
IQLDEKSSIK,1.25 nM,4.57 nM,81.1 nM,551 nM,≥ 70000 nM,–
ILNKIVQLPK,17.3 nM,289 nM,2070 nM,8300 nM,≥ 70000 nM,–
RIDGAHLTK,–,–,–,–,–,Kd (HLA-A*03:01; [1]): 26.7 nM; Kd (HLA-A*11:01; [1]): 11.9 nM; Kd (HLA-A*31:01; [1]): 1820 nM; Kd (HLA-A*68:01; [1]): ≥ 25700 nM; Kd (HLA-A*33:01; [1]): ≥ 77700 nM
RSSPPIPMSR,8.73 nM,1.49 nM,1.12 nM,245 nM,1600 nM,–
PIGMQFDKVY,≥ 70100 nM,1230 nM,≥ 70000 nM,13000 nM,≥ 70000 nM,–
NSYSLIRLSH,–,–,–,–,–,Kd (HLA-A*03:01; [4]): 9960 nM; Kd (HLA-A*11:01; [4]): ≥ 24600 nM; Kd (HLA-A*31:01; [4]): 9770 nM; Kd (HLA-A*68:01; [4]): 10200 nM; Kd (HLA-A*33:01; [4]): 3250 nM
SMRYQSLIPR,1.35 nM,1.01 nM,0.363 nM,20.2 nM,0.614 nM,–
YIAVANCVR,≥ 78000 nM,13900 nM,14.2 nM,6.73 nM,284 nM,–
SVVQKPVDVK,–,–,–,–,–,Kd (HLA-A*03:01; [1]): 61.6 nM; Kd (HLA-A*11:01; [1]): 53.7 nM; Kd (HLA-A*31:01; [1]): 7980 nM; Kd (HLA-A*68:01; [1]): 857 nM; Kd (HLA-A*33:01; [1]): ≥ 67100 nM
NYSKYWYLNH,–,–,–,–,–,Kd (HLA-A*03:01; [5]): ≥ 70000 nM; Kd (HLA-A*11:01; [5]): ≥ 21800 nM; Kd (HLA-A*31:01; [5]): 1480 nM; Kd (HLA-A*68:01; [5]): ≥ 70100 nM; Kd (HLA-A*33:01; [5]): 863 nM

Sequence,Kd (HLA-A*03:01; [3]),Kd (HLA-A*11:01; [3]),Kd (HLA-A*31:01; [3]),Kd (HLA-A*68:01; [3]),Kd (HLA-A*33:01; [3]),other results
TVHKLTQDEK,12300 nM,80.5 nM,≥ 70000 nM,220 nM,≥ 70000 nM,–
FMECNLNEL,–,–,–,–,–,Kd (HLA-A*02:03; source organism: Homo sapiens): 1.1 nM
MVNHSTYYVH,–,–,–,–,–,Kd (HLA-A*03:01; [6]): 10100 nM; Kd (HLA-A*11:01; [6]): 6280 nM; Kd (HLA-A*31:01; [6]): 544 nM; Kd (HLA-A*68:01; [6]): 391 nM; Kd (HLA-A*33:01; [6]): 3020 nM
KLSAGVEFLK,–,–,–,–,–,Kd (HLA-A*03:01; [1]): 14.9 nM; Kd (HLA-A*11:01; [1]): 27.9 nM; Kd (HLA-A*31:01; [1]): 516 nM; Kd (HLA-A*68:01; [1]): 101 nM; Kd (HLA-A*33:01; [1]): 6100 nM
LIIYYQLAGY,137 nM,5120 nM,≥ 25700 nM,8000 nM,≥ 67600 nM,–
KTYIDVNEEY,1800 nM,777 nM,1880 nM,10500 nM,≥ 70000 nM,–
LSSIKSKSR,3070 nM,4160 nM,755 nM,612 nM,1570 nM,–
TLATGPVLTL,–,–,–,–,–,Kd (HLA-A*02:03; [2]): 28.3 nM
LITLILSNK,20.9 nM,19 nM,2080 nM,32.7 nM,6720 nM,–
TSSTCMMCYK,–,–,–,–,–,Kd (HLA-A*03:01; [1]): 22.9 nM; Kd (HLA-A*11:01; [1]): 1.17 nM; Kd (HLA-A*31:01; [1]): 85.1 nM; Kd (HLA-A*68:01; [1]): 4.93 nM; Kd (HLA-A*33:01; [1]): 441 nM
KQLCYCPASK,27.1 nM,13.9 nM,31 nM,11300 nM,≥ 31100 nM,–
KIIETYLGR,≥ 78000 nM,≥ 77900 nM,≥ 77900 nM,≥ 77700 nM,≥ 77700 nM,–
ASCDAIMTR,–,–,–,–,–,Kd (HLA-A*03:01; [1]): 19400 nM; Kd (HLA-A*11:01; [1]): 79.4 nM; Kd (HLA-A*31:01; [1]): 81.3 nM; Kd (HLA-A*68:01; [1]): 1440 nM; Kd (HLA-A*33:01; [1]): 83.5 nM
EKFGHFCKYH,–,–,–,–,–,Kd (HLA-A*03:01; [7]): ≥ 70000 nM; Kd (HLA-A*11:01; [7]): ≥ 69700 nM; Kd (HLA-A*31:01; [7]): ≥ 32800 nM; Kd (HLA-A*68:01; [7]): ≥ 70100 nM; Kd (HLA-A*33:01; [7]): ≥ 70000 nM
SFYVYANGGR,–,–,–,–,–,Kd (HLA-A*03:01; [1]): 1650 nM; Kd (HLA-A*11:01; [1]): 1170 nM; Kd (HLA-A*31:01; [1]): 89.2 nM; Kd (HLA-A*68:01; [1]): 789 nM; Kd (HLA-A*33:01; [1]): 182 nM
KSTSPTRTWK,–,–,–,–,–,Kd (HLA-A*03:01; [8]): 11.1 nM; Kd (HLA-A*11:01; [8]): 21.7 nM; Kd (HLA-A*31:01; [8]): 101 nM; Kd (HLA-A*68:01; [8]): 472 nM; Kd (HLA-A*33:01; [8]): 6860 nM
IAEYIAGLK,63.3 nM,147 nM,8070 nM,1.27 nM,1320 nM,–
